The source of these data is US20230406885A1, “CYCLIC PEPTIDES FOR TRAPPING INTERLEUKIN-1 BETA” (MERCK SHARP & DOHME LLC, priority 2022, published 2023).

*1 amine or outer side, *2 acyl side, *3 side chain or, on linkers, in order; H or OH if unused. [ ]: non-standard residue; d: D form. 3AzaPhe4AcPip = (S)-3-(6-(4-acetylpiperazin-1-yl)pyridin-3-yl)-2-aminopropanoic acid, CC(=O)N1CCN(c2ccc(C[C@H](N[*:1])C(=O)[*:2])cn2)CC1; Trp(4-Cl)(βS-Me) = C[C@@H](c1c[nH]c2cccc(Cl)c12)[C@H](N)C(=O)O; Ala(piperidin-4-yl) = O=C([C@H](CC1CCN([*:3])CC1)N[*:1])[*:2]; Pro(trans-4-NH2) = O=C([C@@H]1C[C@@H](N[*:3])CN1[*:1])[*:2]; Bip(4'-COOH) = N[C@@H](Cc1ccc(-c2ccc(C(=O)O)cc2)cc1)C(=O)O; Phe(3-CH2NH2) = O=C([C@H](Cc1cccc(CN[*:3])c1)N[*:1])[*:2]; 1Nal(3S-Me) = C[C@@H](c1cccc2ccccc12)[C@H](N)C(=O)O; Phe(4-COOH) = N[C@@H](Cc1ccc(C(=O)O)cc1)C(=O)O; h3Pal(5-CN) = N#Cc1cncc(CC[C@H](N)C(=O)O)c1; hTyr = N[C@@H](CCc1ccc(O)cc1)C(=O)O; dDab = NCC[C@@H](N)C(=O)O; Orn = NCCC[C@H](N)C(=O)O; dNMeA = CN[C@H](C)C(=O)O; Dap = NC[C@H](N)C(=O)O

The labels stand for the following.
B1: SEQ ID NO: 46 (peptide)
peptide: cyclo([Bip(4'-COOH)]W[Phe(4-COOH)]G[Pro(trans-4-NH2)][Trp(4-Cl)(βS-Me)]D[dNMeA]G[Bip(4'-COOH)]KS[dDab][hTyr])
SMILES: C[C@@H]1C(=O)NCC(=O)N[C@@H](Cc2ccc(-c3ccc(C(=O)O)cc3)cc2)C(=O)N[C@@H](CCCCN)C(=O)N[C@@H](CO)C(=O)N[C@H](CCN)C(=O)N[C@@H](CCc2ccc(O)cc2)C(=O)N[C@@H](Cc2ccc(-c3ccc(C(=O)O)cc3)cc2)C(=O)N[C@@H](Cc2c[nH]c3ccccc23)C(=O)N[C@@H](Cc2ccc(C(=O)O)cc2)C(=O)NCC(=O)N2C[C@H](N)C[C@H]2C(=O)N[C@@H]([C@@H](C)c2c[nH]c3cccc(Cl)c23)C(=O)N[C@@H](CC(=O)O)C(=O)N1C
B2: SEQ ID NO: 47 (peptide)
peptide: cyclo([Bip(4'-COOH)]W[Phe(4-COOH)]G[Pro(trans-4-NH2)][Trp(4-Cl)(βS-Me)]D[dNMeA]G[Bip(4'-COOH)]KS[dS][hTyr])
SMILES: C[C@@H]1C(=O)NCC(=O)N[C@@H](Cc2ccc(-c3ccc(C(=O)O)cc3)cc2)C(=O)N[C@@H](CCCCN)C(=O)N[C@@H](CO)C(=O)N[C@H](CO)C(=O)N[C@@H](CCc2ccc(O)cc2)C(=O)N[C@@H](Cc2ccc(-c3ccc(C(=O)O)cc3)cc2)C(=O)N[C@@H](Cc2c[nH]c3ccccc23)C(=O)N[C@@H](Cc2ccc(C(=O)O)cc2)C(=O)NCC(=O)N2C[C@H](N)C[C@H]2C(=O)N[C@@H]([C@@H](C)c2c[nH]c3cccc(Cl)c23)C(=O)N[C@@H](CC(=O)O)C(=O)N1C
B3: SEQ ID NO: 49 (peptide)
peptide: cyclo([Bip(4'-COOH)]W[Phe(4-COOH)]G[Pro(trans-4-NH2)][Trp(4-Cl)(βS-Me)]D[dNMeA]G[Bip(4'-COOH)][Orn]S[dA][hTyr])
SMILES: C[C@@H]1C(=O)NCC(=O)N[C@@H](Cc2ccc(-c3ccc(C(=O)O)cc3)cc2)C(=O)N[C@@H](CCCN)C(=O)N[C@@H](CO)C(=O)N[C@H](C)C(=O)N[C@@H](CCc2ccc(O)cc2)C(=O)N[C@@H](Cc2ccc(-c3ccc(C(=O)O)cc3)cc2)C(=O)N[C@@H](Cc2c[nH]c3ccccc23)C(=O)N[C@@H](Cc2ccc(C(=O)O)cc2)C(=O)NCC(=O)N2C[C@H](N)C[C@H]2C(=O)N[C@@H]([C@@H](C)c2c[nH]c3cccc(Cl)c23)C(=O)N[C@@H](CC(=O)O)C(=O)N1C
B4: SEQ ID NO: 42 (peptide)
peptide: cyclo([Bip(4'-COOH)]W[Phe(4-COOH)]G[Pro(trans-4-NH2)][Trp(4-Cl)(βS-Me)]D[dNMeA]G[Bip(4'-COOH)]KL[dA][hTyr])
SMILES: CC(C)C[C@@H]1NC(=O)[C@H](CCCCN)NC(=O)[C@H](Cc2ccc(-c3ccc(C(=O)O)cc3)cc2)NC(=O)CNC(=O)[C@@H](C)N(C)C(=O)[C@H](CC(=O)O)NC(=O)[C@H]([C@@H](C)c2c[nH]c3cccc(Cl)c23)NC(=O)[C@@H]2C[C@@H](N)CN2C(=O)CNC(=O)[C@H](Cc2ccc(C(=O)O)cc2)NC(=O)[C@H](Cc2c[nH]c3ccccc23)NC(=O)[C@H](Cc2ccc(-c3ccc(C(=O)O)cc3)cc2)NC(=O)[C@H](CCc2ccc(O)cc2)NC(=O)[C@@H](C)NC1=O
B5: SEQ ID NO: 48 (peptide)
peptide: cyclo([Bip(4'-COOH)]W[Phe(4-COOH)]G[Pro(trans-4-NH2)][Trp(4-Cl)(βS-Me)]D[dNMeA]G[Bip(4'-COOH)][Phe(3-CH2NH2)]S[dA][hTyr])
SMILES: C[C@@H]1C(=O)NCC(=O)N[C@@H](Cc2ccc(-c3ccc(C(=O)O)cc3)cc2)C(=O)N[C@@H](Cc2cccc(CN)c2)C(=O)N[C@@H](CO)C(=O)N[C@H](C)C(=O)N[C@@H](CCc2ccc(O)cc2)C(=O)N[C@@H](Cc2ccc(-c3ccc(C(=O)O)cc3)cc2)C(=O)N[C@@H](Cc2c[nH]c3ccccc23)C(=O)N[C@@H](Cc2ccc(C(=O)O)cc2)C(=O)NCC(=O)N2C[C@H](N)C[C@H]2C(=O)N[C@@H]([C@@H](C)c2c[nH]c3cccc(Cl)c23)C(=O)N[C@@H](CC(=O)O)C(=O)N1C
B6: SEQ ID NO: 5 (peptide)
peptide: cyclo([3AzaPhe4AcPip]W[Phe(4-COOH)]G[Pro(trans-4-NH2)][1Nal(3S-Me)]D[dNMeA]G[Bip(4'-COOH)]W[Dap][dA][hTyr])
SMILES: CC(=O)N1CCN(c2ccc(C[C@@H]3NC(=O)[C@H](CCc4ccc(O)cc4)NC(=O)[C@@H](C)NC(=O)[C@H](CN)NC(=O)[C@H](Cc4c[nH]c5ccccc45)NC(=O)[C@H](Cc4ccc(-c5ccc(C(=O)O)cc5)cc4)NC(=O)CNC(=O)[C@@H](C)N(C)C(=O)[C@H](CC(=O)O)NC(=O)[C@H]([C@@H](C)c4cccc5ccccc45)NC(=O)[C@@H]4C[C@@H](N)CN4C(=O)CNC(=O)[C@H](Cc4ccc(C(=O)O)cc4)NC(=O)[C@H](Cc4c[nH]c5ccccc45)NC3=O)cn2)CC1
B7: SEQ ID NO: 45 (peptide)
peptide: cyclo([Bip(4'-COOH)]W[Phe(4-COOH)]G[Pro(trans-4-NH2)][Trp(4-Cl)(βS-Me)]D[dNMeA]G[Bip(4'-COOH)]KS[dA][hTyr])
SMILES: C[C@@H]1C(=O)NCC(=O)N[C@@H](Cc2ccc(-c3ccc(C(=O)O)cc3)cc2)C(=O)N[C@@H](CCCCN)C(=O)N[C@@H](CO)C(=O)N[C@H](C)C(=O)N[C@@H](CCc2ccc(O)cc2)C(=O)N[C@@H](Cc2ccc(-c3ccc(C(=O)O)cc3)cc2)C(=O)N[C@@H](Cc2c[nH]c3ccccc23)C(=O)N[C@@H](Cc2ccc(C(=O)O)cc2)C(=O)NCC(=O)N2C[C@H](N)C[C@H]2C(=O)N[C@@H]([C@@H](C)c2c[nH]c3cccc(Cl)c23)C(=O)N[C@@H](CC(=O)O)C(=O)N1C
B8: SEQ ID NO: 43 (peptide)
peptide: cyclo([Bip(4'-COOH)]W[Phe(4-COOH)]G[Pro(trans-4-NH2)][Trp(4-Cl)(βS-Me)]D[dNMeA]G[Bip(4'-COOH)]KL[dDab][hTyr])
SMILES: CC(C)C[C@@H]1NC(=O)[C@H](CCCCN)NC(=O)[C@H](Cc2ccc(-c3ccc(C(=O)O)cc3)cc2)NC(=O)CNC(=O)[C@@H](C)N(C)C(=O)[C@H](CC(=O)O)NC(=O)[C@H]([C@@H](C)c2c[nH]c3cccc(Cl)c23)NC(=O)[C@@H]2C[C@@H](N)CN2C(=O)CNC(=O)[C@H](Cc2ccc(C(=O)O)cc2)NC(=O)[C@H](Cc2c[nH]c3ccccc23)NC(=O)[C@H](Cc2ccc(-c3ccc(C(=O)O)cc3)cc2)NC(=O)[C@H](CCc2ccc(O)cc2)NC(=O)[C@@H](CCN)NC1=O
B9: SEQ ID NO: 40 (peptide)
peptide: cyclo([Bip(4'-COOH)]W[Phe(4-COOH)]G[Pro(trans-4-NH2)][Trp(4-Cl)(βS-Me)]D[dNMeA]G[Bip(4'-COOH)][Ala(piperidin-4-yl)]S[dA][hTyr])
SMILES: C[C@@H]1C(=O)NCC(=O)N[C@@H](Cc2ccc(-c3ccc(C(=O)O)cc3)cc2)C(=O)N[C@@H](CC2CCNCC2)C(=O)N[C@@H](CO)C(=O)N[C@H](C)C(=O)N[C@@H](CCc2ccc(O)cc2)C(=O)N[C@@H](Cc2ccc(-c3ccc(C(=O)O)cc3)cc2)C(=O)N[C@@H](Cc2c[nH]c3ccccc23)C(=O)N[C@@H](Cc2ccc(C(=O)O)cc2)C(=O)NCC(=O)N2C[C@H](N)C[C@H]2C(=O)N[C@@H]([C@@H](C)c2c[nH]c3cccc(Cl)c23)C(=O)N[C@@H](CC(=O)O)C(=O)N1C
B10: SEQ ID NO: 44 (peptide)
peptide: cyclo([Bip(4'-COOH)]W[Phe(4-COOH)]G[Pro(trans-4-NH2)][Trp(4-Cl)(βS-Me)]D[dNMeA]G[Bip(4'-COOH)]KL[dS][hTyr])
SMILES: CC(C)C[C@@H]1NC(=O)[C@H](CCCCN)NC(=O)[C@H](Cc2ccc(-c3ccc(C(=O)O)cc3)cc2)NC(=O)CNC(=O)[C@@H](C)N(C)C(=O)[C@H](CC(=O)O)NC(=O)[C@H]([C@@H](C)c2c[nH]c3cccc(Cl)c23)NC(=O)[C@@H]2C[C@@H](N)CN2C(=O)CNC(=O)[C@H](Cc2ccc(C(=O)O)cc2)NC(=O)[C@H](Cc2c[nH]c3ccccc23)NC(=O)[C@H](Cc2ccc(-c3ccc(C(=O)O)cc3)cc2)NC(=O)[C@H](CCc2ccc(O)cc2)NC(=O)[C@@H](CO)NC1=O
B11: SEQ ID NO: 4 (peptide)
peptide: cyclo([3AzaPhe4AcPip]W[Phe(4-COOH)]G[Pro(trans-4-NH2)][1Nal(3S-Me)]D[dNMeA]G[Bip(4'-COOH)]W[Dap][dA][h3Pal(5-CN)])
SMILES: CC(=O)N1CCN(c2ccc(C[C@@H]3NC(=O)[C@H](CCc4cncc(C#N)c4)NC(=O)[C@@H](C)NC(=O)[C@H](CN)NC(=O)[C@H](Cc4c[nH]c5ccccc45)NC(=O)[C@H](Cc4ccc(-c5ccc(C(=O)O)cc5)cc4)NC(=O)CNC(=O)[C@@H](C)N(C)C(=O)[C@H](CC(=O)O)NC(=O)[C@H]([C@@H](C)c4cccc5ccccc45)NC(=O)[C@@H]4C[C@@H](N)CN4C(=O)CNC(=O)[C@H](Cc4ccc(C(=O)O)cc4)NC(=O)[C@H](Cc4c[nH]c5ccccc45)NC3=O)cn2)CC1
B12: SEQ ID NO: 41 (peptide)
peptide: cyclo([Bip(4'-COOH)]W[Phe(4-COOH)]G[Pro(trans-4-NH2)][Trp(4-Cl)(βS-Me)]D[dNMeA]G[Bip(4'-COOH)][Dap]S[dA][hTyr])
SMILES: C[C@@H]1C(=O)NCC(=O)N[C@@H](Cc2ccc(-c3ccc(C(=O)O)cc3)cc2)C(=O)N[C@@H](CN)C(=O)N[C@@H](CO)C(=O)N[C@H](C)C(=O)N[C@@H](CCc2ccc(O)cc2)C(=O)N[C@@H](Cc2ccc(-c3ccc(C(=O)O)cc3)cc2)C(=O)N[C@@H](Cc2c[nH]c3ccccc23)C(=O)N[C@@H](Cc2ccc(C(=O)O)cc2)C(=O)NCC(=O)N2C[C@H](N)C[C@H]2C(=O)N[C@@H]([C@@H](C)c2c[nH]c3cccc(Cl)c23)C(=O)N[C@@H](CC(=O)O)C(=O)N1C

In the assay the target is Recombinant human IL-1β (BioLegend 579404) (human, UniProt P01584 117-269). Kind of assay: cell-based or functional assay.
As to B1, the “MRC5 IC50” value turned out to be 0.134 nM. With B2 the figure was 0.123 nM.

Regarding B3, the “MRC5 IC50” value was determined as 0.402 nM. With B4 the figure was 0.627 nM; with B5, 0.041 nM. With B6 the figure was 0.674 nM; with B7, 0.174 nM. B8: the “MRC5 IC50” value was determined as 0.244 nM. With B9 the figure was 0.508 nM. With B10 the figure was 0.132 nM. Consider B11, for which the “MRC5 IC50” value came to 0.0438 nM.

As for B12, the “MRC5 IC50” value worked out at 0.469 nM.
